According to publication PMC4130184:

Biological target: T1, PRIN2;CSP41b (Arabidopsis thaliana?;Arabidopsis thaliana?) (UniProt Q9XIK0+Q9SA52)
T1 sequence 1: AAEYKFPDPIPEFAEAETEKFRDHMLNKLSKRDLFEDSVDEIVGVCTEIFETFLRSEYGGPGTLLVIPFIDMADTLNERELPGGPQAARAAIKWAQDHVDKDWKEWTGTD
T1 sequence 2: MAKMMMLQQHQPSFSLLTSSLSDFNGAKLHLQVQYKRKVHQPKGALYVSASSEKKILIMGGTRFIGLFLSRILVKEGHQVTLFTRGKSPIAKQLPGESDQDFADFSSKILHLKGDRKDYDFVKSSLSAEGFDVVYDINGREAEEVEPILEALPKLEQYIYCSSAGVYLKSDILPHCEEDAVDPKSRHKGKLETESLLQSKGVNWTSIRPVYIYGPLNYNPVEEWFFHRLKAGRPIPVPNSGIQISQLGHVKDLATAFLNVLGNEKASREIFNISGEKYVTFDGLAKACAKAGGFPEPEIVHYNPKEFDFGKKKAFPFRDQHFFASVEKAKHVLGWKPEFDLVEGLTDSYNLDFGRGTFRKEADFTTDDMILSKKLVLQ
Assay: EMSA
Conditions: EMSA: 10 mM Tris-HCl, 25 mM KCl, 1 mM DTT (1x from 10x stock; pH not stated), 1 ug poly(dI-dC) per 25 uL, 2.5% glycerol, 0.05% Triton X-100, 5 mM MgCl2, 10 mM …

ACCCACTACGGATCGTATTCAATCGTATTCATATGATTTGGAAAAAATATTCCTAGAGCAATTCTATTTCTATGTATGTGGATTCGCTTCTAATTTATTTCATCGATTACAAAAAATTTTTTATGAATCTAAACTAAAAGGATCTTATCCATTTTACATTGGTTGACATGGCTATATAAGTCATGTTATACTGTTTC (double strand) [psbA promoter probe (197/198 bp)]
binding: binds
